# US6699715 (Bristol-Myers Squibb, dated 2004)
# T1: L6 antigen (human, UniProt P30408 1-202)
# T1 construct: whole, on cells; also called tumor associated antigen L6; L6 molecule
# T1 sequence (looked up): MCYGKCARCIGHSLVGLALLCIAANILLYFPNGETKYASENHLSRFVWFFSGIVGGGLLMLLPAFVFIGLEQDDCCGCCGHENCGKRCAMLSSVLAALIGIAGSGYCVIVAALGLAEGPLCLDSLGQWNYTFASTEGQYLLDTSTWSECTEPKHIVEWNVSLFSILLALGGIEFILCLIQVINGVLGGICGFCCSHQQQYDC
# B1: 9.3 sFvIg (scFv, not shown: small tags and cut ends)
# scFv: DIVLTQSPASLAVSLGQRATISCRASESVEYYVTSLMQWYQQKPGQPPKLLIFAASNVESGVPARFSGSGSGTNFSLNIHPVDEDDVAMYFCQQSRKVPYTFGGGTKLEIKRASGGGGSGGGGSGGGGSLAQVQLKESGPGLVTPSQSLSITCTVSGFSLSDYGVHWVRQSPGQGLECLGVIWAGGGTNYNSALMSRKSISKDNSKGQVFLKMKSLQADDTAVYYCARDKGYSYYYSMDYWGQGTSVTVSS
# notes: Anti-human CD28 sFv of mouse mAb 9.3 fused to human Ig; from COS or CHO cells; also called 9.3 sFvIg fusion protein; monospecific 9.3 sFvIg
# Legend:
# human CD28 [1] = target: T2, human CD28 (human, UniProt P10747 19-220); experiment: cell-based or functional assay
# T2 construct: whole, on cells; also called CD28 receptor; CD28 CHO cells
# L6 antigen [2] = target: T1, L6 antigen; experiment: flow cytometry on L6 positive H2981 tumor cells
# L6 antigen [3] = target: T1, L6 antigen; experiment: flow cytometry on L6 positive H2981 tumor cells, FITC anti-human IgG
# Description: (§1) FIGS. 15a/b/c are line graphs showing that the bispecific 9.3/L6 sFvIg fusion protein binds to L6+ H2981 tumor cells and to CD28+ CHO cells. Panel 15A: L6+ H2981 tumor cells were incubated with L6 sFvIg ( - - - - ) at 0.5 μg/ml or 9.3 sFvIg ( . . . . ) at 0.5 μg/ml or 9.3/L6 sFvIg (_____) fusion protein at 0.5 μg/ml or with medium alone ( . . . . ). Panel 15B: CD28 CHO cells were incubated with 9.3 sFvIg ( - - - - ) at 1 μg/ml or 9.3/L6 sFvIg fusion protein (_____) at 1 μg/ml, or with medium alone ( . . . . ). Bound protein was detected with FITC conjugated goat anti-human IgG at 1:100. Panel 15C: CD28+ PHA blasts were incubated with FITC conjugated L6 α-idiotype mAb 13B ( . . . . ) as negative control, bispecific 9.3/L6 sFvIg at 0.5 μg/ml and bound protein detected with FITC conjugated L6 α-idiotypic mAb 13B ( - - - - ). Preincubation of cells with unlabelled 9.3 sFvIg inhibited binding of bispecific 9.3/L6 sFvIg as shown by a significant reduction in FITC-13B staining (_____). A total of 10,000 cells were analyzed per sample.
# (§2) Binding activity of the 9.3 and 9.3/L6 sFvIg Fusion Protein: The binding of each sFvIg fusion protein was assayed by immunostaining and FACS analysis. […] 9.3 sFvIg and 9.3/L6 sFvIg were incubated with CD28 CHO cells and binding was detected using FITC anti-human IgG as shown in FIG. 15B. […]
# human CD28 [4] = target: T2, human CD28; experiment: flow cytometry on CD28 CHO cells, FITC anti-human IgG
# Description: as §1, §2
molecule,measurement,setting,value
9.3 monoclonal antibody,"3H-Thymidine incorporation, + blasts; 9.3 mAb",human CD28 [1],58800
same,"3H-Thymidine incorporation, + blasts; 9.3 mAb + 187.1 Ab",human CD28 [1],98300
bispecific 9.3/L6 sFvIg fusion protein (bispecific antibody),concentration of native L6 antibody that gives the same staining as 1 µg/ml of the fusion protein,L6 antigen [2],0.5 µg/mL
same,"[3H]-thymidine incorporation of PHA blasts, 9.3/L6 at 0.05 µg/ml, +H3347",human CD28 [1],97800 cpm
same,"[3H]-thymidine incorporation of PHA blasts, 9.3/L6 at 0.05 µg/ml, no H3347 cells",human CD28 [1],4000 cpm
same,"[3H]-thymidine incorporation of PHA blasts, 9.3/L6 at 0.1 µg/ml, +H3347",human CD28 [1],115000 cpm
same,"[3H]-thymidine incorporation of PHA blasts, 9.3/L6 at 0.1 µg/ml, no H3347 cells",human CD28 [1],9600 cpm
same,"[3H]-thymidine incorporation of PHA blasts, 9.3/L6 at 0.5 µg/ml, +H3347",human CD28 [1],145000 cpm
same,"[3H]-thymidine incorporation of PHA blasts, 9.3/L6 at 0.5 µg/ml, no H3347 cells",human CD28 [1],69200 cpm
same,"[3H]-thymidine incorporation of PHA blasts, untransfected H3347 preincubated with 9.3/L6 at 1 µg/ml, cells washed 3×",human CD28 [1],98000 cpm
same,proliferation of T cell blasts with 9.3/L6 sFvIg alone (FIG. 16),human CD28 [1],> 0.1 µg/mL
B1,binding result,L6 antigen [3],no binding (tested: 1 µg/ml)
same,binding result,human CD28 [4],binds
